How the values were obtained:
Experiment in all cases: IEDB peptide-MHC binding, purified MHC/competitive/radioactivity; ≥ and ≤ were set here for values at or beyond the usual limits of such assays
Conditions in all cases: source organism: Homo sapiens
HLA-A*11:01 = molecular target: HLA-A*11:01
HLA-A*03:01 = molecular target: HLA-A*03:01
HLA-A*02:01 = molecular target: HLA-A*02:01
HLA-A*33:01 = molecular target: HLA-A*33:01
HLA-A*31:01 = molecular target: HLA-A*31:01
HLA-A*30:01 = molecular target: HLA-A*30:01
HLA-B*08:01 = molecular target: HLA-B*08:01
HLA-B*27:05 = molecular target: HLA-B*27:05
HLA-A*01:01 = molecular target: HLA-A*01:01
HLA-A*68:01 = molecular target: HLA-A*68:01

| Sequence | IC50 (HLA-A*11:01) [µM] | IC50 (HLA-A*03:01) [µM] | IC50 (HLA-A*02:01) [µM] | IC50 (HLA-A*33:01) [µM] | IC50 (HLA-A*31:01) [µM] | IC50 (HLA-A*30:01) [µM] | IC50 (HLA-B*08:01) [µM] | IC50 (HLA-B*27:05) [µM] | IC50 (HLA-A*01:01) [µM] | IC50 (HLA-A*68:01) [µM] |
| --- | --- | --- | --- | --- | --- | --- | --- | --- | --- | --- |
| AIKTSPKA | ≥ 20 | ≥ 20 | ≥ 20 |  |  |  |  |  |  |  |
| AIKTSPKAN | ≥ 20 | ≥ 20 | ≥ 20 |  |  |  |  |  |  |  |
| AIKTSPKANK | 4.65 | 0.584 | ≥ 20 |  |  |  |  |  |  |  |
| AIKTSPKANKE | 9.92 | 1.59 | ≥ 20 |  |  |  |  |  |  |  |
| EKVKIPVAIKT | 15.1 | 11.2 | ≥ 20 |  |  |  |  |  |  |  |
| FGLAKLLGA | ≥ 50 | ≥ 50 | 0.107 | ≥ 50 | 8.45 | 8.77 | 0.0266 | 3.7 | ≥ 50 | ≥ 50 |
| GLAKLLGAEEK | ≥ 50 | 0.664 | ≥ 50 | ≥ 50 | 1.06 | ≥ 50 | 3.37 | 14.7 | ≥ 50 | ≥ 50 |
| GRAKLLGAEEK | ≥ 50 | 42.9 | ≥ 50 | ≥ 50 | 4.86 | ≥ 50 | ≥ 50 | 0.0438 | ≥ 50 | ≥ 50 |
| HVKITDFGL | ≥ 50 | ≥ 50 | ≥ 50 | 6.53 | 4.67 | 7.63 | 0.475 | 41.3 | ≥ 50 | ≥ 50 |
| IKTSPKAN | ≥ 20 | ≥ 20 | ≥ 20 |  |  |  |  |  |  |  |
| IKTSPKANK | ≥ 20 | 16.5 | ≥ 20 |  |  |  |  |  |  |  |
| IKTSPKANKE | ≥ 20 | ≥ 20 | ≥ 20 |  |  |  |  |  |  |  |
| IKTSPKANKEI | ≥ 20 | ≥ 20 | ≥ 20 |  |  |  |  |  |  |  |
| IPVAIKTS | ≥ 20 | ≥ 20 | ≥ 20 |  |  |  |  |  |  |  |
| IPVAIKTSPK | 3.35 | 1.66 | ≥ 20 |  |  |  |  |  |  |  |
| IPVAIKTSPKA | ≥ 20 | ≥ 20 | ≥ 20 |  |  |  |  |  |  |  |
| KIPVAIKT | ≥ 20 | ≥ 20 | ≥ 20 |  |  |  |  |  |  |  |

Reference: the Immune Epitope Database (IEDB)
